Experimental data as given in patent US20190282673A1, “STAPHTAME ACTIVITY ON BIOFILMS” (priority 2016, published 2019).

How the values were obtained:
[1] = tested on: S. aureus biofilms; assay: MBIC and checkerboard synergy on preformed biofilm (MTT assay); format: cell-based, Staphylococcus aureus; conditions: for MIC (drug alone) on biofilm: S. aureus MW2 72 h preformed biofilm, 6 hr treatment; for Activity on biofilms: S. aureus MW2 biofilm, drug alone
Protocol: […] LB supplemented with 50 μg/mL CaCl2 was used for daptomycin treatment wells. The contents of the well was aspirated out and discarded. The biofilm adhered to the wells was quantified by MTT assay as described above. The MBIC was defined as the minimum concentration of P128 or the drug showing no colour development. […] In each experiment, in addition to the combination MBIC, the MBIC of each drug was also determined individually. The fractional MBIC concentrations were determined by MTT dye method as described above. The FICI and synergy was also calculated in a similar manner.
The ability of P128 to inhibit growth of S. aureus in a preformed biofilm was measured by determining minimum biofilm inhibition concentration (MBIC), defined as minimum concentration showing growth inhibition in a MTT based assay. […] 11:226.
The assay was optimized using the standard S. aureus strain ATCC 29213. An overnight-grown culture of the strain was diluted 1:40 in LB broth 200 μL of diluted culture was aliquoted into microtiter plate wells. Microplates were placed in a shaker-incubator set to 37° C., and 100 rpm for 24 h followed by 48 h incubation under static conditions at 37° C. The contents of one set of four wells were aspirated and discarded. Wells were washed twice with 1×PBS and the presence of biofilm in the wells at the end of this 72-hour period was determined by metabolic dye-reduction assay method using MTT (3-(4, 5-dimethylthiazol-5-diphenyltetrazolium bromide; Himedia). In this assay, live cells reduce the dye leading to color formation which can be read at 570 nm, and the intensity of color can be correlated to number of live cells. 100 μL of PBS was added to the wells along with 10 μL of MTT solution. The plate was incubated for 2 h in the dark. After this, 110 μL of solvent solution solubilizing agent was added and the plate was incubated for 15 minutes at ambient temperature with gentle agitation. The absorbance was read at 570 nm in a microplate reader. Another set of four wells was processed for harvesting the biofilm and determination of CFUs present by plating on solid media. For biofilm inhibitory studies, the wells were washed twice with 1×PBS and challenged with various concentrations of P128 or other antibiotic drugs and incubated for 24 h at 37° C. The contents of the well was aspirated out and discarded. The biofilm adhered to the wells was quantified by MTT assay as described above. The MBIC was defined as the minimum concentration of P128 or the drug showing no colour development. […] In each experiment, in addition to the combination MBIC, the MBIC of each drug was also determined individually. The fractional MBIC concentrations were determined by MTT dye method as described above. The FICI and synergy was also calculated in a similar manner.
In order to determine whether P128 could synergize with known anti-Staphylococcus drugs to inhibit S. aureus in biofilms. […] The assays were performed in a 96 well checkerboard format using various concentrations of P128 and one of the antibiotics.

[2] = tested on: S. aureus BK18 and B9377 persisters; assay: P128 and antibiotic activity on persisters (CFU); format: cell-based, Staphylococcus aureus; conditions: for CFU/mL after treatment of persisters: 1×MIC, P128 1 h, antibiotics 6 h
Protocol: (§1) Persisters were generated as above were treated with P128 and antibiotics (Ref: Gutiérrez, et al. (2014) Effective Removal of Staphylococcal Biofilms by the Endolysin LysH5 PLoS One 9(9): e107307).
(§2) To 450 μL aliquots, P128. Daptomycin and Vancomycin (in saline) were added (individually) each at 1×MIC Conc., and another 450 μL aliquot was taken as control. The persister samples treated with P128 were incubated for 1 h, 37° C., and 200 rpm and those treated with antibiotics were incubated for 6 h, 37° C., and 200 rpm. After incubation samples were serially log diluted and plated.

[3] = tested on: S. epidermidis B9470 persisters; assay: P128 and antibiotic activity on persisters (CFU); format: cell-based, Staphylococcus epidermidis; conditions: 1×MIC, P128 1 h, antibiotics 6 h
Protocol: as §1, §2

[4] = tested on: S. aureus biofilm; assay: Bactericidal activity on biofilm (CFU reduction); format: cell-based, Staphylococcus aureus; conditions: for Reduction in CFU counts: S. aureus MW2 biofilm on catheters, P128 8 μg/mL, daptomycin 10 μg/mL, vancomycin 15 μg/mL
Protocol: In order to determine whether P128 could also act as a bactericidal agent in biofilms, the CFU reduction were monitored in S. aureus ATCC 29213 72 h preformed biofilms treated with various concentrations of P128 for 6 h. For CFU enumeration in catheter biofilm, the catheters were removed from the tubes, rinsed twice in PBS and placed in eppendorf tubes containing 1 mL PBS. To release the adhered biofilm into PBS, the catheters were scraped using inoculation loop. The samples were vortexed thoroughly and plated on LB agar plates.

[5] = Table 4, S. aureus ATCC 29213 preformed biofilm, 6 h
[6] = Table 4, S. aureus ATCC 29213 preformed biofilm, 24 h
[7] = Table 4, S. aureus B9241 preformed biofilm, 6 h
[8] = Table 4, S. aureus B9241 preformed biofilm, 24 h
[9] = Table 4, S. aureus BK1 preformed biofilm, 6 h
[10] = Table 4, S. aureus BK1 preformed biofilm, 24 h

In the case of `CC(=O)NC[C@H]1CN(c2ccc(N3CCOCC3)c(F)c2)C(=O)O1` [Linezolid, linezolid], the “MIC (drug alone) on biofilm” value [1] is reported as >500 µg/mL and the “Activity on biofilms” value [1] is reported as “poorly effective”.

For `CCCCCCCCCC(=O)N[C@@H](Cc1c[nH]c2ccccc12)C(=O)N[C@H](CC(N)=O)C(=O)N[C@@H](CC(=O)O)C(=O)N[C@@H]1C(=O)NCC(=O)N[C@@H](CCCN)C(=O)N[C@@H](CC(=O)O)C(=O)N[C@H](C)C(=O)N[C@@H](CC(=O)O)C(=O)NCC(=O)N[C@H](CO)C(=O)N[C@@H]([C@H](C)CC(=O)O)C(=O)N[C@@H](CC(=O)c2ccccc2N)C(=O)O[C@@H]1C` [Daptomycin, daptomycin], the “MIC (drug alone) on biofilm” value [1] was 31.2 µg/mL, the “Activity on biofilms” value [1] was “relatively better activity” and the “CFU/mL after treatment of persisters” value ([2]; B9377 Daptomycin persisters) was 1 × 10^2 CFU/mL. The “CFU/mL after treatment of persisters” value ([2]; B9377 Vancomycin persisters) was 6 × 10^5 CFU/mL, the “CFU/mL after treatment of persisters” value ([2]; BK18 Daptomycin persisters) was 1 × 10^1 CFU/mL and the “CFU/mL after treatment of persisters” value ([2]; BK18 Vancomycin persisters) was 7.5 × 10^5 CFU/mL. For the same molecule, the “CFU/mL after treatment of persisters” value ([3]; B9470 Daptomycin persisters) was 1.3 × 10^6 CFU/mL, the “CFU/mL after treatment of persisters” value ([3]; B9470 Vancomycin persisters) was 2.1 × 10^2 CFU/mL and the “Reduction in CFU counts” value [4] was 1 log.

For `CN[C@H](CC(C)C)C(=O)N[C@H]1C(=O)N[C@@H](CC(N)=O)C(=O)N[C@H]2C(=O)N[C@H]3C(=O)N[C@H](C(=O)N[C@H](C(=O)O)c4cc(O)cc(O)c4-c4cc3ccc4O)[C@H](O)c3ccc(c(Cl)c3)Oc3cc2cc(c3O[C@@H]2O[C@H](CO)[C@@H](O)[C@H](O)[C@H]2O[C@H]2C[C@](C)(N)[C@H](O)[C@H](C)O2)Oc2ccc(cc2Cl)[C@H]1O` [Vancomycin, vancomycin], the “MIC (drug alone) on biofilm” value [1] was 250 µg/mL, the “Activity on biofilms” value [1] was “poorly effective” and the “MBIC (individual)” value [1, 5] was 7.8 µg/mL. For the same molecule, the “MBIC (individual)” value [1, 6] was 218.75 µg/mL, the “MBIC (individual)” value [1, 7] was 31.25 µg/mL and the “MBIC (individual)” value [1, 8] was 125 µg/mL. For the same molecule, the “MBIC (individual)” value [1, 9] was 31.25 µg/mL, the “MBIC (individual)” value [1, 10] was 250 µg/mL and the “CFU/mL after treatment of persisters” value ([2]; B9377 Daptomycin persisters) was 2.6 × 10^2 CFU/mL. For the same molecule, the “CFU/mL after treatment of persisters” value ([2]; B9377 Vancomycin persisters) was 4 × 10^5 CFU/mL, the “CFU/mL after treatment of persisters” value ([2]; BK18 Daptomycin persisters) was 1 × 10^1 CFU/mL and the “CFU/mL after treatment of persisters” value ([2]; BK18 Vancomycin persisters) was 8 × 10^5 CFU/mL. For the same molecule, the “CFU/mL after treatment of persisters” value ([3]; B9470 Daptomycin persisters) was 5 × 10^5 CFU/mL, the “CFU/mL after treatment of persisters” value ([3]; B9470 Vancomycin persisters) was 1.5 × 10^3 CFU/mL and the “Reduction in CFU counts” value [4] was “no significant effect”.

B1: P128: anti-staphylococcal chimeric protein: phage tail associated muralytic enzyme (TAME) cell wall-degrading region plus staphylococcus-specific binding region; SEQ ID NO: 1 (protein)
chain: MSLDSLKKYNGKLPKHDPSFVQPGNRHYKYQCTWYAYNRRGQLGIPVPLWGDAADWIGGAKGAGYGVGRTPKQGACVIWQRGVQGGSPQYGHVAFVEKVLDGGKKIFISEHNYATPNGYGTRTIDMSSAIGKNAQFIYDKKLETPNTGWKTNKYGTLYKSESASFTPNTDIITRTTGPFRSMPQSGVLKAGQTIHYDEVMKQDGHVWVGYTGNSGQRIYLPVRTWNKSTNTLGVLWGTIK
modifications: P128 chimera
B1 was tested, and the “MBIC fold higher than planktonic MIC” value ([1]; 2 h assay, sensitive and resistant strains of S. aureus) was 1-4 fold, the MBIC ([1]; S. aureus 8325-4 biofilm, 2 h) was 7.8 µg/mL and the MBIC ([1]; S. aureus 8325-4 biofilm, 4 h) was 15.6 µg/mL. The MBIC ([1]; S. aureus 8325-4 biofilm, 6 h) was 15.6 µg/mL, the MBIC ([1]; S. aureus 8325-4 biofilm, 8 h) was 31.25 µg/mL and the MBIC ([1]; S. aureus 8325-4 biofilm, 24 h) was 1000 µg/mL. It also gave an MBIC ([1]; S. aureus ATCC 29213 biofilm, 2 h) of 3.9 µg/mL, an MBIC ([1]; S. aureus ATCC 29213 biofilm, 4 h) of 15.6 µg/mL and an MBIC ([1]; S. aureus ATCC 29213 biofilm, 6 h) of 15.6 µg/mL. It also gave an MBIC ([1]; S. aureus ATCC 29213 biofilm, 8 h) of 15.6 µg/mL, an MBIC ([1]; S. aureus ATCC 29213 biofilm, 24 h) of 250 µg/mL and an MBIC ([1]; S. aureus B9241 biofilm, 2 h) of 15.6 µg/mL. It also gave an MBIC ([1]; S. aureus B9241 biofilm, 4 h) of 125 µg/mL, an MBIC ([1]; S. aureus B9241 biofilm, 6 h) of 125 µg/mL and an MBIC ([1]; S. aureus B9241 biofilm, 8 h) of 125 µg/mL. For the same molecule, the MBIC ([1]; S. aureus B9241 biofilm, 24 h) was >1000 µg/mL, the MBIC ([1]; S. aureus B9356 biofilm, 2 h) was 7.8 µg/mL and the MBIC ([1]; S. aureus B9356 biofilm, 4 h) was 15.6 µg/mL. The MBIC ([1]; S. aureus B9356 biofilm, 6 h) was 31.25 µg/mL, the MBIC ([1]; S. aureus B9356 biofilm, 8 h) was 62 µg/mL and the MBIC ([1]; S. aureus B9356 biofilm, 24 h) was >1000 µg/mL. The MBIC ([1]; S. aureus BK1 biofilm, 2 h) was 15.6 µg/mL, the MBIC ([1]; S. aureus BK1 biofilm, 4 h) was 31.25 µg/mL and the MBIC ([1]; S. aureus BK1 biofilm, 6 h) was 31.25 µg/mL. The MBIC ([1]; S. aureus BK1 biofilm, 8 h) was 31.25 µg/mL, the MBIC ([1]; S. aureus BK1 biofilm, 24 h) was 1000 µg/mL and the “MIC (drug alone) on biofilm” value [1] was 6.25 µg/mL. The “MBIC (individual)” value [1, 5] was 6.04 µg/mL, the “MBIC (individual)” value [1, 6] was 200 µg/mL and the “MBIC (individual)” value [1, 7] was 105.15 µg/mL. The “MBIC (individual)” value [1, 8] was >1000 µg/mL, the “MBIC (individual)” value [1, 9] was 28.95 µg/mL and the “MBIC (individual)” value [1, 10] was 400 µg/mL. The “CFU/mL after treatment of persisters” value ([2]; B9377 Daptomycin persisters) was 1 × 10^1 CFU/mL, the “CFU/mL after treatment of persisters” value ([2]; B9377 Vancomycin persisters) was 2.5 × 10^1 CFU/mL and the “CFU/mL after treatment of persisters” value ([2]; BK18 Daptomycin persisters) was 1 × 10^1 CFU/mL. The “CFU/mL after treatment of persisters” value ([2]; BK18 Vancomycin persisters) was 5 × 10^1 CFU/mL, the “Drop in CFU” value ([2]; Vancomycin persisters (1×10^6 CFU/mL) of S. aureus BK18 and B9377 treated with P128) was ~5 log and the CFU recovered ([2]; daptomycin persisters of S. aureus treated with P128) was < 10 CFU/mL. For the same molecule, the “CFU/mL after treatment of persisters” value ([3]; B9470 Daptomycin persisters) was 2.5 × 10^2 CFU/mL, the “CFU/mL after treatment of persisters” value ([3]; B9470 Vancomycin persisters) was 7 × 10^1 CFU/mL and the Cells killed ([4]; S. aureus ATCC 29213 72 h biofilm, P128 7.8 μg/mL, 6 h) was > 90%. The Cell killing ([4]; S. aureus ATCC 29213 72 h biofilm, P128 greater than 31 μg/mL, 6 h) was 99.9% and the “Reduction in CFU counts” value [4] was 3 log.
